Source: the supplement of paper PMC9170038

Test system: MS2 coat protein
Experiment: apparent KD of MS2 coat protein; designed switch direction (-1 OFF switch, 1 ON switch): -1; higher = weaker reporter binding
Conditions: Eterna round: R98
Procedure: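 RNA-MaP: designed FMN/MS2 RNA switches (84 nt design region) are transcribed on-chip within common flanks and titrated with SNAP-549-labelled MS2 coat protein (about 1-3000 nM) in 100 mM Tris pH 7.5, 80 mM KCl, 4 mM MgCl2, without or with 200 uM FMN. Median apparent KD per design; activation ratio = KD,OFF / KD,ON.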

GGUUGUUACGCAGGAUAUUGCCAACAGGCAGUGGGAUAUCCGAAAGGAGAAGGUUCGCCAACAGGCGAGAAGGGCGGGUUAACC [pwkr exNG2 2xF7 2FMN.10.7]
apparent KD of MS2 coat protein (input ligand: FMN 200 uM): 94 nM
apparent KD of MS2 coat protein (input ligand: none): 400 nM

UAAUAAUAAUAAUACGUCAAUUACAUGAGGAUCACCCAUGUAUAGGAUAUGCAGUGGAAUACACUGCAGAAGGAUACAAAGACG [Exclusion NG 3/3-B1]
apparent KD of MS2 coat protein (input ligand: FMN 200 uM): 22.8 nM
apparent KD of MS2 coat protein (input ligand: none): 19.6 nM

UGUAAAAUUGAUCCUGCAAGUACAUGAGGAUCACCCAUGUGCUAGGAUAUCGCUCAGCUAAAGACCGAGAAGGAGCACAAUGUA [Adiraat]
apparent KD of MS2 coat protein (input ligand: FMN 200 uM): 67.1 nM
apparent KD of MS2 coat protein (input ligand: none): 27.9 nM
